# B1: Azurin, P00282 (parent)
# chain: MLRKLAAVSLLSLLSAPLLAAECSVDIQGNDQMQFNTNAITVDKSCKQFTVNLSHPGNLPKNVMGHNWVLSTAADMQGVVTDGMASGLDKDYLKPDDSRVIAHTKLIGSGEKDSVTFDVSKLKEGEQYMFFCTFPGHSALMKGTLTLK
# Variants of: B1
# Settings: Pseudomonas aeruginosa (strain ATCC 15692 / DSM 22644 / CIP 104116 / JCM 14847 / LMG 12228 / 1C / PRS 101 / PAO1); pH 7.03; 20 °C; Thermal; DSC; phosphate buffer 10 mM; sodium chloride 40 microM; reversible: no; structure 5AZU; whole UniProt chain shown
Variant,unfolding enthalpy (calorimetric),unfolding free energy
C23A C46A,16 kcal/mol,7.79 kcal/mol

# From FireProtDB (doi:10.1016/s0006-3495(99)76955-9)
